The assay addresses ToxT from Vibrio cholerae serogroup O42 strain SCE-256, wild type, purified (Vibrio cholerae serogroup O42 strain SCE-256) (UniProt Q7BGC0). In words: SEC-SAXS.

Usually stoichiometry N stands for a count of units in the complex or per binding partner. “ToxT from Vibrio cholerae serogroup O42 strain SCE-256, wild type, purified (from UniProt Q7BGC0 1-276) (natural protein)” returned a stoichiometry N of 2.

Source of the values: paper PMC6882843.
